In paper PMC7901269 (Cell, 2021):

Molecular target: His-tagged SARS-CoV-2 RBD (native RBD) (SARS-CoV-2, Wuhan (native RBD), UniProt P0DTC2)
Test: BLI
Conditions: both partners purified

Binder	Kd [nM]
mAb 88 (Fab, V domains shown) VH: QLQLQESGPGLVKPSQTLSLTCTVSGGSISSGSYNWTWIRQPAGKGLEWIGRIYNSGSTNYNPSLKSRVTISVDTSKNQLSLKVRSVTAADTAVYYCARHCSGGTCYPKYYYGMDVWGQGTTVTVSS VL: QSALTQPPSVSEAPRQRVTISCSGSSSNIGNNAVNWYQQFPGKAPKLLIYYDDLLPSGVSDRFSGSKSGTSASLAISGVQSEDEADYYCAAWDDSLNVVVFGGGTKLTVL	0.64
mAb 150 (Fab, V domains shown, source: from Dejnirattisai et al., 2021; human mAbs expressed in HEK293T cells) VH: QVQLVESGGGLIQPGGSLRLSCAASGVTVSSNYMSWVRQAPGKGLEWVSIIYSGGTTYYADSVKGRFTISRDSSMNTLYLQMNSLRAEDTAVYYCARDLMVYGIDVWGQGTTVTVSS VL: EIVMTQSPSSLSASVGDRVTITCRASQGISSYLAWYQQKPGKAPKLLIYAASTLQSGVPSRFSGSGSGTDFTLTISSLQPEDFATYYCQQLDSYPPGYTFGQGTKVDIK	0.19
chimera 253H/165L (Fab, V domains shown, also called 253-165; 353/165; source: from Dejnirattisai et al., 2021; human mAbs expressed in HEK293T cells) VH: not shown VL: DIVMTQSPGTLSLSPGERATLSCRASQSVRSSYLAWYQQKPGQAPRLLIYGASRRGTGIPDRFSGSGSGTDFTLTISRLEPEDFAVYYCQQYGSSPWTFGQGTKVEIK	0.73
